Source: PMC6009595

Biological target: H-NS (Salmonella enterica serovar Typhimurium …, UniProt A0A0F6B244 1-137)
Experiment: fluorescence anisotropy

Sequence of H-NS (A0A0F6B244 whole entry): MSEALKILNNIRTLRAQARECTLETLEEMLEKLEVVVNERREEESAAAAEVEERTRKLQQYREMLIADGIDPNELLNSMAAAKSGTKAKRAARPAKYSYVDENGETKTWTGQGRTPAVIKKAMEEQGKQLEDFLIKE

B1: 36 bp pagC high-affinity H-NS site (HAhnsBS) (dsDNA)
DNA 1: ATGGGTTTTATAGCGAAATAGACTTTTTTATCGCGT
DNA 2: ACGCGATAAAAAAGTCTATTTCGCTATAAAACCCAT
binding result: binds
